Key:
[1] = system: ammonia water induced cough in ICR mice; test: Antitussive test, cough induced by ammonia water in mice; format: in vivo, mouse; conditions: for Incubation period (cough): 10% ammonia water 10 s; for Incubation period (cough) / Number of coughs: X±SEM, n=9; for Number of coughs: within 2 minutes
Method: • Animals: male ICR mice; • Drugs and reagents: dextromethorphan hydrobromide, ammonia water, 0.2% CMC-Na, protein BD-11; • Apparatus: Compressed nebulizer (403T type), balance (XS105DU type).
Experiment grouping: • Solvent control group; • Dextromethorphan 15 mg/kg group; • Protein BD-11, 20 mg/kg group, 50 mg/kg group.
Dextromethorphan and different doses of protein BD-11 (administration volume 10 ml/kg) were given orally in groups, and the solvent control group was given the same volume of distilled water. One hour later, mice were put into a sealed box and atomized 10% ammonia water for 10 seconds, and then observed and recorded the incubation period of cough in mice and the number of coughs in 2 minutes.
Record the time point of oral administration, the time point of atomization experiment, the incubation period of mice cough and the number of coughs within 2 minutes, respectively. The incubation period of cough refers to the number of seconds from the start of the atomization of ammonia to the occurrence of cough. The performance of coughing in mice is based on contraction of their abdominal muscles (breast contraction) and opening their mouths at the same time. Calculate the mean and standard error of each group of data, and use TTEST to compare the model group with other groups, and P<0.05 is considered as a significant difference.
Give dextromethorphan (15 mg/kg) and different doses of protein BD-11 (20 mg/kg, 50 mg/kg) in advance, One hour later, the mice were put into a sealed box and atomized 10% ammonia water for 10 seconds, and then the mice were observed and recorded the incubation period of coughing and the number of coughs within 2 minutes.

[2] = system: yeast-induced fever model in SD rats; test: Yeast-induced fever model in SD rats; format: in vivo, rat; conditions: for Body temperature 2 hours after modeling: 2 h after 20% yeast s.c.; for Body temperature 2 hours after modeling / Body temperature 4 hours after modeling / Body temperature 6 hours after modeling / Body temperature 8 hours after modeling: n=8; for Body temperature 4 hours after modeling: 4 h after 20% yeast s.c.; for Body temperature 6 hours after modeling: 6 h after 20% yeast s.c.; for Body temperature 8 hours after modeling: 8 h after 20% yeast s.c.
Method: • Animals: 230-260 grams of male SD rats;; • Drugs: yeast (OXOID LP0021), aspirin (SIGMA A2093), protein BD-11; • Instruments: electronic balance (SARTORIUS BP121S type), electronic clinical thermometer (CITIZEN CT-513W type).
Experiment grouping: • Normal control group; • Model group: yeast fever model; • Positive control group: Aspirin 300 mg/kg group; • Protein BD-11, 10 mg/kg group, 50 mg/kg group.
Preparation of experimental animals: After the experimental animals adapt to the experimental environment (temperature 22° C.±2° C., relative humidity 50%±2%) for 1 day. Pre-adaptation to measure rectal temperature at 8:00 and 15:00, rats were fasted and water was taken freely 12 h before experiment, and let the animal to empty its feces before measuring the rectal temperature. Apply petroleum jelly to the electronic thermometer probe before each temperature measurement. Insert the rat rectum 2 cm (can be marked at 2 cm to ensure that the depth of each insertion is consistent), and record the body temperature after the reading is stable.
Subcutaneous injection of dry yeast to replicate rat fever model: The body temperature of the rats was measured before modeling. Qualified rats with a body temperature of 36.2-37.3° C. were selected and randomly divided into groups with 8 rats in each group. After oral administration of aspirin and different doses of protein BD-11, 20% yeast suspension (10 ml/kg) was injected subcutaneously immediately, and the normal control group was injected intraperitoneally with an equal volume of normal saline. The body temperatures of the rats were monitored after 2 hours for a total of 8 hours.
According to the body temperature measured at each time point on the day of the experiment, calculate the mean, standard deviation and standard error of the body temperature of each group of rats. The data of each group was compared with TTEST, and P<0.05 was considered as a significant difference.
Immediately after oral administration of aspirin (300 mg/kg), protein BD-11 (10 mg/kg, 50 mg/kg), subcutaneous injection of 20% yeast was performed to establish a model. The animal body temperature was monitored at 2 hours, 4 hours, 6 hours, and 8 hours after modeling.

[3] = system: tracheal phenol red excretion in ICR mice; test: Expectorant test, phenol red excretion method in mice; format: in vivo, mouse; conditions: for Phenol red excretion: X±SEM, n=10
Method: • Animals: male ICR mice; • Drugs and reagents: Mucosolvan (ambroxol hydrochloride tablets), phenol red, sodium bicarbonate, protein BD-11; • Instruments: centrifuge (Sigma-3K15 type), balance (XS105DU type), Microplate tester (BIO-TEK type).
Experiment grouping: • Solvent control group; • Mucosolvan 30 mg/kg group; • Protein BD-11, 20 mg/kg group, 50 mg/kg group.
The animals were fasted and water was taken freely 16 hours before the experiment. Orally administered Mucosolvan and different doses of protein BD-11 (administration volume 10 ml/kg) in groups, and the solvent control group was given the same volume of distilled water. One hour later, 2.5% phenol red solution was injected intraperitoneally. Mice were sacrificed by neck dislocation after 30 minutes. Take a trachea from below the thyroid cartilage to the branch of the trachea, and put the trachea into 3 ml 5% NaHCO3 solution and let it stand for 3 hours. Take 1 ml of the supernatant and centrifuge at 3000 rpm for 5 minutes. Measure and record the absorbance at 546 nm. According to the standard curve of phenol red, the excretion of phenol red was calculated.
Record the time point of oral administration, the time point of intraperitoneal injection of 2.5% phenol red solution, and the time point of taking the trachea respectively; The absorbance of each group of samples was measured by the microplate reader at 546 nm, Calculate the excretion of phenol red according to the standard curve of phenol red. Calculate the mean and standard error of the data in each group, and use TTEST to compare the solvent control group with other groups, and P<0.05 is considered as a significant difference.
Give Mucosolvan (30 mg/kg) and different doses of protein BD-11 (20 mg/kg, 50 mg/kg). One hour later, 2.5% phenol red solution was intraperitoneally injected, and 30 minutes later, the mice were sacrificed by neck dislocation. Take the trachea from below the thyroid cartilage to the branch of the trachea, put the trachea into 3 ml of 5% NaHCO3 solution and let it stand for 3 hours, take 1 ml of supernatant, centrifuge at 3000 rpm for 5 minutes, measure and record the absorbance at 546 nm. According to the standard curve of phenol red, the excretion of phenol red was calculated.

[4] = BD-11 50 mg/kg dose group, P<0.05

B1: BD-11: recombinant keratin, amino acid sequence SEQ ID NO:1, expressed in E. coli, band around 59 kD; Example 4 batch tested (protein, listed as Bos taurus)
chain: MSRQSTITFQTSSRRGFSTASATTPATSRSRFSSASVTHSPAGSGGLGRISGFGSRSLYNLGGTKRVSISGCGSNFRSGFGGRASSGFGVSGGFGYGGGIGGGHGGCGFSVCPPGGIQEVTVNQSLLTPLNLQIDPNIQRVRKEEREQIKTLNNKFASFIDKVRFLEQQNKVLETKWSLLQEQGTRTVRQSLEPFFEAYITDLRRQLDSITTERGRLDAELRTMQDVVEDFKVRYEDEINKRTAAENEFVALKKDVDAAYLNKVDLEAKANSLTDEINFLQMLFEAELCQMQTRVSDTSVVLSMDNNRSLDLDSIIAEVKAQYEEIANRSRAEAESWYQTKYEELQVTAGQHGDDLRNTKQEISETNRMIQRLRAEIDNVKKQCASLQTAIADAEQRGELALKDARAKLVDLEEALQKSKQDMARLLREYQELMNIKLALDVEIATYRKLLEGEECRLSGEGVSPVNISVVTSTVSSGYGGGSSIGSGSLGLSGGSGCSFMTSGGHSLGGSSFSNSSSRGLGGSGSSFKFVSTTSSSRKSYKH
Incubation period (cough) ([1]; BD-11 20 mg/kg oral): 30.0 ± 3.2 s | Number of coughs ([1]; BD-11 20 mg/kg oral): 61.8±4.7 | Cough incubation period vs solvent control group [1, 4]: significant improvement | Number of coughs vs solvent control group [1, 4]: significant improvement effect | Incubation period (cough) ([1]; BD-11 50 mg/kg oral): 35.8 ± 2.0 s | Number of coughs ([1]; BD-11 50 mg/kg oral): 50.0±4.6 | Effect on cough incubation period (summary) ([1]; dose not given): prolong the incubation period | Effect on number of coughs (summary) ([1]; dose not given): significantly reduce the number of coughs | Effect on increase in body temperature (summary) ([2]; 2, 4, 6 and 8 hours after modeling, dose not given): significantly inhibit the increase in body temperature | Effect on the increase in body temperature of model rats ([2]; BD-11 10 mg/kg dose group, most time points P<0.05 vs model group): strong effect | Body temperature 2 hours after modeling ([2]; BD-11 10 mg/kg oral): 36.7±0.1 °C | Body temperature 4 hours after modeling ([2]; BD-11 10 mg/kg oral): 37.0±0.1 °C | Body temperature 6 hours after modeling ([2]; BD-11 10 mg/kg oral): 37.4±0.1 °C | Body temperature 8 hours after modeling ([2]; BD-11 10 mg/kg oral): 37.3 ±0.1 °C | Body temperature 2 hours after modeling ([2]; BD-11 50 mg/kg oral): 36.9 ± 0.2 °C | Body temperature 4 hours after modeling ([2]; BD-11 50 mg/kg oral): 37.4 ± 0.1 °C | Body temperature 6 hours after modeling ([2]; BD-11 50 mg/kg oral): 37.5 ± 0.1 °C | Body temperature 8 hours after modeling ([2]; BD-11 50 mg/kg oral): 37.4 ±0.1 °C | Effect on the increase in body temperature of model rats ([2]; different doses of BD-11 (10, 50 mg/kg oral), after modeling): can inhibit the increase in body temperature of model rats to varying degrees | Phenol red excretion ([3]; BD-11 20 mg/kg oral): 0.670 ± 0.082 µg/mL | Excretion of phenol red vs solvent control group [3, 4]: significantly increased the excretion of phenol red | Phenol red excretion ([3]; BD-11 50 mg/kg oral): 0.781 ± 0.043 µg/mL | Expectorant effect (summary) ([3]; dose not given): obvious expectorant effect

— patent US20230183305A1, “KERATIN BD-11, PREPARATION METHOD THEREFOR AND PHARMACEUTICAL COMPOSITION AND USE THEREOF” (INSTITUTE OF MATERIA MEDICA, CHINESE ACADEMY OF MEDICAL …, priority 2019, published 2023)
